The target in test [1] is CofB (minor pilin of CFA/III without its N-terminal 28 residues; homotrimer) (enterotoxigenic Escherichia coli (ETEC)). As to the kind of experiment: AUC.
For test [2] the target is unchanged. As to the kind of experiment: ITC. Background: ITC needs no label: the signal is the heat of the interaction.

pKd: −log10 of the molar value.

Consider “CofB (minor pilin of CFA/III without its N-terminal 28 residues; homotrimer) (domain or fragment)”, for which the stoichiometry N in test [1] was found to be 3.
In turn, “CofJ (1–24) peptide (synthesized peptide consisting of CofJ residues 1–24)” had a pKd in test [2] of 5.06.
For “CofJ (4–16) peptide (synthetic 13-residue peptide comprising CofJ residues 4–16)”, the pKd in test [2] is 5.32.
In turn, “CofJ (intact recombinant secreted protein of the CFA/III operon) (natural protein)” had a negative-log Kd (pKd) in test [2] of 6.85. The substance further gave a stoichiometry N (CofJ per three CofB molecules) in test [1] of 1.

As a reminder, the stoichiometry N is the number of molecules, sites or subunits per partner or assembly. Broadly, the pKd is the negative decadic logarithm of the Kd, by convention in mol/L. High values mean a low Kd, low ones a high Kd.

These data come from publication PMC6048534.
